Values joined by “and” are separate entries in the source; they are usually repeats but may differ in a detail not shown here. Equal entries are not always repeated.
What was measured:
[1] = with ultrasound; cited from earlier work
[2] = Calculation of intrascleral diffusivity from penetration distance versus square root of time; type: in vitro ADME, New Zealand White Rabbit; conditions: for intrascleral diffusivity: 37° C.
Procedure: The one-dimensional diffusion model describing the penetration distance (L), diffusivity (D) and time of diffusion (t) is given by the equation below (23): L=√{square root over (2Dt)}. (1)
A plot of the penetration distance versus the square root of time yields a straight line. The diffusivity is calculated from the slope, which equals […].
The diffusivity measured at room temperature is converted to the value at 37° C. according to Stokes-Einstein equation, which gives
[formula] where D and η are diffusivity and viscosity respectively, with the temperature designated at the subscript. Since the experiment was conducted in dilute buffer solution, the viscosity of water is used. Histological Study

[3] = type: in vitro ADME, New Zealand White Rabbit
Procedure: The eyes of New Zealand White Rabbits (6-month to one-year-old) were enucleated immediately after the rabbits were sacrificed. The eyes were kept on ice prior to experiments and the time lag never exceeded 15 minutes to ensure tissue freshness. All the periocular tissues (muscles and conjunctiva) were removed and the optic nerve was sealed with Vaseline®. The eye was immersed in a container filled with 4 ml of 0.1% FITC-BSA or BBS+®. An ultrasound transducer with a probe size of 1 cm^2 (BTL-4000, BTL Industries, Inc., Clark, N.J.) was positioned a few millimeters above the sclera near the equator. The zone of ultrasound application was labeled with a marker. Ultrasound at a therapeutic frequency (1 MHz) and a low power input (0.5 W/cm^2) was applied for 30 seconds. The eye continued to be immersed in 0.1% FITC-BSA or BBS+® for different time intervals (5, 15, 30 and 60 minutes for 0.1% FITC-BSA; 15 minutes for BSS+®). All of the experiments were carried out at room temperature. The scleral surface temperature at the ultrasound application zone before and after treatment was measured using a thermocouple. Controls were performed by immersing the eyes for different time intervals without ultrasound application.
Immediately after the ex vivo experiments, the whole eye was washed and immersed in a mould filled with optimum cutting temperature medium (O.C.T) (Leica, Wetzlar, Germany), followed by quick-freezing in liquid nitrogen. 10 μm thick sections across the marked ultrasound application zone of the eye were cut using a cryostat (CM1850, Leica, Wetzlar, Germany). Polylysine-coated slides were used for collecting the tissue sections.
All images were acquired using a fluorescence microscope (BX 41, Olympus, Center Valley, Pa.). The image of the sclera was captured under optical mode, and FITC-BSA penetration into the sclera was captured under fluorescence mode (bandpass filter: 510-550 nm, dichroic mirror: 570 nm, barrier filter: 590 nm, exposure time: […]). The pictures shown in the FIGS. 15-17 were merged images of these two modes. The thickness of the sclera and the penetration distance of FITC-BSA were obtained using the software SPOT® (Diagnostic Instruments, Inc., MI, USA). For each experiment or control, 2 to 4 eyes from different rabbits were used. Three tissue sections were obtained from each eye and at least 20 measurements on the penetration distance were made in each eye. Only images showing intact sclera were used for measurement to avoid ambiguity.
In the first set of experiments, the parameters of the ultrasound used were set as follows: frequency: 1 MHz, power: 0.5 W/cm^2, application duration: 30 seconds, size of transducer: 1 cm^2. Freshly enucleated New Zealand White Rabbit eyes were used as an ex vivo eye model, and 65 kDa protein fluorescent albumin was used as the model macromolecule. Whole rabbit eyes were immersed in fluorescent albumin solution. Ultrasound was applied for 30 s and then the eyes were kept in fluorescent albumin for 5, 15 or 30 minutes. For the control experiment, the eyes were immersed in fluorescent albumin for 15 minutes without ultrasound application. The eyes were then flash frozen in OCT (Optimum Cutting Temperature) medium with liquid nitrogen and sectioned in cryostat for further investigation.
Briefly, the parameters of the ultrasound were set as follows: frequency: 1 MHz, power: 0.5 W/cm^2, application duration: 30 seconds, size of transducer: 1 cm^2. […]

Row | Compound | enhancement of delivery through the cornea versus passive diffusion [1] | increase in ocular diffusivity ([2]; 0.5 W/cm^2, 1 MHz ultrasound for 30 seconds) [folds] | intrascleral diffusivity ([2]; control without ultrasound) | intrascleral diffusivity ([2]; with ultrasound, first 15 min) | intrascleral diffusivity ([2]; with ultrasound, from 15 to 60 min) | increase in diffusivity by ultrasound treatment ([2]; first 15 minutes, ultrasound versus no ultrasound) [times] | depth of intrascleral site reached [3] | increase in percentage of depth of protein penetration versus control [3] [folds] | level of penetration (qualitative) [3] | penetration depth [3] [μm] | penetration versus sample without 15-minute BSS+ pretreatment [3]
1 | O=C([O-])c1ccccc1-c1c2ccc(=O)cc-2oc2cc([O-])ccc12.[Na+].[Na+] [sodium fluorescein] | ten times |  |  |  |  |  |  |  |  |  | 
2 | FITC-BSA: 65 kDa protein fluorescent albumin used as the model macromolecule |  | 2 | 3.90×10^−08 cm^2/sec | 6.17×10^−8 cm^2/sec and 6.17×10^−08 cm^2/sec | 4.18×10^−8 cm^2/sec | 1.6 | about 110 μm | 4 | failed to penetrate into the sclera | 15.8±5.7 | much lower

From US9314421B2, “Ultrasound-enhanced intrascleral delivery of macromolecules” (The Hong Kong University of Science and Technology, priority 2009, dated 2016)
